# Source: patent US20220332804A1 (CSL INNOVATION, published 2022)
# Substitutions are numbered along the chain they refer to.
# T1: human C2 K274A (human, UniProt P06681 21-752)
# T1 sequence: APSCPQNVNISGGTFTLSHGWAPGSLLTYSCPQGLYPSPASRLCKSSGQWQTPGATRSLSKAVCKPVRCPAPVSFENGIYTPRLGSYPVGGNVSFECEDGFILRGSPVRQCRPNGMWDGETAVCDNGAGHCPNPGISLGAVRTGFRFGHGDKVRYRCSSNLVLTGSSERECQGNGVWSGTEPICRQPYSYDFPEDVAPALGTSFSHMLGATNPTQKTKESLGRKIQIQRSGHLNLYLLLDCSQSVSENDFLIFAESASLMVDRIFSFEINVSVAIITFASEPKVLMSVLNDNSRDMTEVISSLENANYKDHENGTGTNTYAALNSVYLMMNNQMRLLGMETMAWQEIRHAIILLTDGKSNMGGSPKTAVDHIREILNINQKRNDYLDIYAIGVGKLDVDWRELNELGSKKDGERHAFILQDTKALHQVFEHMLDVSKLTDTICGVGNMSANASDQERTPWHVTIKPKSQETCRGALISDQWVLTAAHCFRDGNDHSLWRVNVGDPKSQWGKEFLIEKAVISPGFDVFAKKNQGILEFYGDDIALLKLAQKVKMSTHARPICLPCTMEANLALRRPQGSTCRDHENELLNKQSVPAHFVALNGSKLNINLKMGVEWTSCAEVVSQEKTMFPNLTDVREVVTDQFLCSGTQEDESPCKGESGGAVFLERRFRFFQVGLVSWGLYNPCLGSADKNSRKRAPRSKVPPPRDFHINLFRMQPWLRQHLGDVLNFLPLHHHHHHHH
# T2: human C2 N403A (human, UniProt P06681 21-752)
# T2 sequence: T1 sequence with A254K, N383A
# T3: human C2 L439A (human, UniProt P06681 21-752)
# T3 sequence: T1 sequence with A254K, L419A
# T4: human C2 N268A (human, UniProt P06681 21-752)
# T4 sequence: T1 sequence with N248A, A254K
# B1: RF16-242 (antibody, human IgG4 S228P, lambda, V domains shown)
# VH: EVQLLQSGAEVKKPGESLKISCKGSGYSFTSYWIGWVRQMPGKGLEWMGIIYPGDSDTRYSPSFQGQVTISADKSISTAYLQWSSLKASDTAMYYCARRGHYGDYFDYWGQGTLVTVSS
# VL: SYELTQPPSVSVSPGQTARITCSGDALPKKYAYWYHQKSGQAPVLVIYEDRRRPSEIPERFSGSSSGTMATLTITGAQVEDEGVYFCYSRDRAGNQRVFGGGTQLTVLG
# notes: pH-dependent anti-C2 antibody from a phage display library
# Experiments:
# Test in all cases: SPR, antibody captured, C2 as analyte;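 further: biacore at 37 °C, anti-C2 mAbs held by immobilised goat anti-human IgG, C2 alanine or serine mutants injected, double-referenced sensorgrams fitted to a 1:1 kinetic or steady-state model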
# human C2 K274A = target: T1, human C2 K274A
# human C2 N403A = target: T2, human C2 N403A
# human C2 L439A = target: T3, human C2 L439A
# human C2 N268A = target: T4, human C2 N268A
binder,measurement,setting,value
B1,Kd,human C2 K274A,0.0869 µM
same,Kd,human C2 N403A,0.0082 µM
same,Kd,human C2 L439A,0.17 µM
same,Kd,human C2 N268A,0.0148 µM
